Results as given in publication PMC10873582.

Legend:
[1] = biological target: CmCalS1 of 'Dongyangshenli' (Cucurbita moschata ('Dongyangshenli'))
[2] = biological target: CmCalS1 of figleaf gourd (Cucurbita ficifolia (figleaf gourd))

Substance	CmCalS1 enzyme activity in vitro with CmNAC100L1 added (CmNAC100L1 3.5 ng, CmCalS1 85 ng); 18.61 U L^-1 without CmNAC100L1 [1] [U L^-1]	CmCalS1 enzyme activity in vitro with CmNAC100L1 added (CmNAC100L1 3.5 ng, CmCalS1 85 ng); 10.33 U L^-1 without CmNAC100L1 [2] [U L^-1]
CmNAC100L1 of 'Dongyangshenli' (natural protein)	47.8	–
CmNAC100L1 of figleaf gourd (natural protein)	–	3.23
